Results as given in patent US20050100965A1 (published 2005).
Residue numbers refer to the chain shown, from its start. “And” between values parts separate entries of the source, which are not always exact repeats. Equal entries are not always repeated.

B1: HuMAb 550 (antibody, V domains shown)
VH: ZVQLQESGPGLVKPSQTLSLTCTVSGGSINSGGYYWSWIRQHPGKGLEWIGHISYRGTTYSNPSLKSRVTISVDTSKNQFSLKLSSVTAADTAVYYCARDRGGGFFDLWGRGTLVTVSS
VL: EIVLTQSPGTLSLSPGERATLSCRASQSVNSGYLAWYQQKPGQAPRLLIYGVSIRATDIPDRFSGSGSATDFTLTISRLEPEDFAVYYCQQYGFSPLTFGGGTRVEINR
notes: KG-1 IC50 printed as TBD
B2: HuMAb 2.5.1 (antibody, V domains shown)
VH: ZVQLVQSGTEVKKPGESLKISCKGSGYTVTSYWIGWVRQMPGKGLEWMGFIYPGDSETRYSPTFQGQVTISADKSFNTAFLQWSSLKASDTAMYYCARVGSGWYPYTFDIWGQGTMVTVSS
VL: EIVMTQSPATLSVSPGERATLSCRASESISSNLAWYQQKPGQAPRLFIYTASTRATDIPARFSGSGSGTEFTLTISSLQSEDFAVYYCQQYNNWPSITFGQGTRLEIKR
B3: HuMAb 435 (antibody, V domains shown)
VH: ZLQLQESGPGLVKPSETLSLTCTVSGGSIDSRIYYWGWIRQPPGKGLEWIGSIYYRGSTYYNPSLKSRVTISVDTPKNQFSLKLNSVTAADTAVYYCAREDSSAWVFDYWGQGTLATVSS
VL: EIVLTQSPGTLSLSPGERATLSCRASQSVRNNYLNWYQQKPGQAPRLLIYGAFSRATGIPDRFSGSGSGTDFTLTISSLEPEDFVVYYCQQYGNSIDSFGQGTKLEINR
B4: HuMAb 351 (antibody, V domains shown)
VH: ZVQLVESGGGVVQPGRSLRLSCAASGFTFSHYGMHWVRQAPGKGLEWVAVISYDGRNKYYVDSVKGRFTISRDNSKNTLYLQMNSLRAEDTAVFYCAREKGGSGWPPFYYYYGMDVWGQGTTVTVSS
VL: DIVMTQTPLSLSVTPGQPASISCKSSQNLLYSDGETYLCWYLQKPGQPPQLLIYEVSNRFSGVPERFSGSGSGTDFTLKISRVEAEDVGIYYCMQNVQLPLTFGGGTRVEIKR
B5: HuMAb 268 (antibody, V domains shown)
VH: ZVQLVESGGGVVQPGRSLRLSCAASGFTFRNYGLHWVRQAPGKGLEWVAVIWYDGSNKYYADSVKGRFTISRDNSKNTLYLQMNSLRAEDTAVYYCARESYYYYGMDVWGQGTTVTVSS
VL: EIVMTQSPATLSVSPGERATLSCRASQSFNSNLVWYQQKPGQAPRLLIYGASTRATGIPARFSGSGSGTEFTLTISSLQSEDFAVYYCQQYNNWTWTFGQGTKVEIKR
B6: HuMAb 2.13.1 (antibody, V domains shown)
VH: ZVQLQESGPGLVTPSQTLSLTCTVSGGSISSGGHYWTWIRQHPGKGLEWIGYIYYSGSTYYNPSLKSRLTISVDTSKNQFSLKLSSVAAADTAVYYCARDRGGSGSYWDYWGQGTLVTVSS
VL: B1 VL with A25G, Q27R, N30S, D58G, A69G, G93H, F94G, R104K, N108K
B7: HuMAb 215 (antibody, V domains shown)
VH: B1 VH with G33D, S61Y, Y96C
VL: B1 VL with Q27R, V29L, N30S, V52A, D58G, G93N, F94Y
B8: HuMAb 413 (antibody, V domains shown)
VH: ZTQLQESGPGLVKPSETLSLTCTVSGGSISSRVYYWGWIRQPPGKGLEWIGSIYYSGSTYYSPSLKSRVTISVDTSKNQFSLKLSSVTAADTAIYYCAREDSSAWVFEHWGQGTLVTVSS
VL: EIVLTQSPDTLSLSPGERATLSCRASQILSRNYLAWYQQKPGQAPRLLIYGISIRATGIPDRFSGSGSGADFTLTINRLEPEDFAVYYCQHYDNSLCSFGQGTKLEVKR

target: T1, Biotinylated rhuIL-18 (biot-IL-18) (human, UniProt Q14116 37-193, NEM-treated cysteines; biotin on lysine residues (mixture with 1, 2, 3 or 4 biotins per huIL-18)); test: biotinylated IL-18 ELISA, hybridoma or B cell supernatant
T1 construct: also called biotinylated NEM-huIL-18; biotinylated IL-18
From the text: An ELISA was developed to screen for antibodies that bind human IL-18. […] Hybridoma or B cell supernatants were applied and IL-18-bound antibodies were detected using HRP-conjugated anti-human IgGs, following standard ELISA protocols well known in the art.

| Binder | binding result |
| --- | --- |
| B1 | binds |

target: NEM-huIL-18 (human, UniProt Q14116 37-193, cysteines treated with N-ethyl maleiamide (NEM)); test: cell-based or functional assay

| Binder | KG-1 Assays (IC50, M) |
| --- | --- |
| B2 | 3e-10 M and 4e-10 M |
| B3 | 8e-10 M and 7e-10 M and 4e-10 M |
| B4 | 2e-10 M |
| B5 | 7e-09 M |
| B6 | 2e-10 M and 1e-10 M and 7e-11 M |
| B7 | 1e-10 M and 3e-10 M |
| B8 | 1e-09 M and 7e-10 M |
